Consider two proteins from patent publication US20090169520.

The target of data set [1] is synthetic Aβ (1-40) peptide (Biosource), P05067.
In data set [2] the target is T1, Amylin (islet amyloid polypeptide, IAPP), P10997.
T1 chain: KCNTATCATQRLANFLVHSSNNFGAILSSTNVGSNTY

Sequence of synthetic Aβ (1-40) peptide (Biosource), P05067 (P05067 whole entry, looked up, tested part not stated): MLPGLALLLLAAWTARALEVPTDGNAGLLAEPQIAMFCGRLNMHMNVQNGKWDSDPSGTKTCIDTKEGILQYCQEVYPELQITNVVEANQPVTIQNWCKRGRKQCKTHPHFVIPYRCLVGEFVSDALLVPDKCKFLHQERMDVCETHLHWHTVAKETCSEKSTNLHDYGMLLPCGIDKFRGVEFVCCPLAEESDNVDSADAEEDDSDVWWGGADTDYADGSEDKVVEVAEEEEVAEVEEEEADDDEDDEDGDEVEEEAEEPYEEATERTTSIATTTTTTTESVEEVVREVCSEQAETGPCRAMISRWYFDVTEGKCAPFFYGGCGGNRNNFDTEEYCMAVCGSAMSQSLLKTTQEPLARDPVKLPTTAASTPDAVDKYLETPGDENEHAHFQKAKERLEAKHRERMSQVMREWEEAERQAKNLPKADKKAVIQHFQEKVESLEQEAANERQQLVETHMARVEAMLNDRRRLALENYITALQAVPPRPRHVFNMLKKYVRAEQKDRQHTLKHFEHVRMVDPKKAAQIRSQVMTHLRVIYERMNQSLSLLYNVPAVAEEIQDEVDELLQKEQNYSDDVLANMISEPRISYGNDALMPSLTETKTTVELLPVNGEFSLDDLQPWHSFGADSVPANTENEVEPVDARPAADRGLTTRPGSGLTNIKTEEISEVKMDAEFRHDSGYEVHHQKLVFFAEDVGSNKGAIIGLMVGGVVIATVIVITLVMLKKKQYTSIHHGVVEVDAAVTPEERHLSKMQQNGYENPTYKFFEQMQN

B1: purified human BChE (butyrylcholinesterase, from human serum; Sigma) (protein)
chain: EDDIIIATKNGKVRGMNLTVFGGTVTAFLGIPYAQPPLGRLRFKKPQSLTKWSDIWNATKYANSCCQNIDQSFPGFHGSEMWNPNTDLSEDCLYLNVWIPAPKPKNATVLIWIYGGGFQTGTSSLHVYDGKFLARVERVIVVSMNYRVGALGFLALPGNPEAPGNMGLFDQQLALQWVQKNIAAFGGNPKSVTLFGESAGAASVSLHLLSPGSHSLFTRAILQSGSFNAPWAVTSLYEARNRTLNLAKLTGCSRENETEIIKCLRNKDPQEILLNEAFVVPYGTPLSVNFGPTVDGDFLTDMPDILLELGQFKKTQILVGVNKDEGTAFLVYGAPGFSKDNNSIITRKEFQEGLKIFFPGVSEFGKESILFHYTDWVDDQRPENYREALGDVVGDYNFICPALEFTKKFSEWGNNAFFYYFEHRSSKLPWPEWMGVMHGYEIEFVFGLPLERRDNYTKAEEILSRSIVKRWANFAKYGNPNETQNNSTSWPVFKSTEQKYLTLNTESTRIMTKLRAQQCRFWTSFFPKVLEMTGNIDEAEWEWKAGFHRWNNYMMDWKNQFNDYTSKKESCVGL
On to B1, for which, in data set [1], the “Aβ fibril formation in a mix of 33 µM Aβ with 0.36 µM AChE-S and increasing doses of hBChE (ThT fluorescence)” value was “a dose-dependent interference with the fibril formation process was observed”; the Lag (fold change) of Aβ fibrillation against no addition came out at 1.4 fold; the Lag (h) before onset of Aβ fibrillation was 5.6 h; the Rate (FU/h) of Aβ fibrillation, ThT fluorescence, BChE at 27.4 mg/L was determined as 1.1 FU/h. Moreover, in data set [1], the Rate (fold change) of Aβ fibrillation against no addition came to 0.3 fold; the “concentration needed for a complete attenuation of Aβ fibrillation (for 400 minutes)” value is listed as “as compared with 30 µg/ml of the complete BChE enzyme”; the “time for which Aβ fibril formation was totally prevented (0.4 µM BChE, 33 µM Aβ, ThT fluorescence)” value was “addition of 0.4 µM BChE to 33 µM Aβ totally prevented fibril formation for over 600 minutes”. In data set [2], the “lag time of amylin amyloid fibril formation with 0.24 µM BChE (30 minutes without)” value was “increased the lag time of amyloid fibril formation from 30 minutes to 110 minutes” and the “time for which amylin fibril formation was completely attenuated (20 µM amylin, 0.24 µM BChE, ThT fluorescence)” value is listed as “BChE completely attenuated the formation of amylin fibrils for 100 minutes”.

B2: recombinant human AChE-S (synaptic acetylcholinesterase) (protein)
chain: EGREDAELLVTVRGGRLRGIRLKTPGGPVSAFLGIPFAEPPMGPRRFLPPEPKQPWSGVVDATTFQSVCYQYVDTLYPGFEGTEMWNPNRELSEDCLYLNVWTPYPRPTSPTPVLVWIYGGGFYSGASSLDVYDGRFLVQAERTVLVSMNYRVGAFGFLALPGSREAPGNVGLLDQRLALQWVQENVAAFGGDPTSVTLFGESAGAASVGMHLLSPPSRGLFHRAVLQSGAPNGPWATVGMGEARRRATQLAHLVGCPPGGTGGNDTELVACLRTRPAQVLVNHEWHVLPQESVFRFSFVPVVDGDFLSDTPEALINAGDFHGLQVLVGVVKDEGSYFLVYGAPGFSKDNESLISRAEFLAGVRVGVPQVSDLAAEAVVLHYTDWLHPEDPARLREALSDVVGDHNVVCPVAQLAGRLAAQGARVYAYVFEHRASTLSWPLWMGVPHGYEIEFIFGIPLDPSRNYTAEEKIFAQRLMRYWANFARTGDPNEPRDPKAPQWPPYTAGAQQYVSLDLRPLEVRRGLRAQACAFWNRFLPKLLSATDTLDEAERQWKAEFHRWSSYMVHWKNQFDHYSKQDRCSDL
Regarding B2, in data set [1], the Lag (fold change) of Aβ fibrillation against no addition stood at 0.6 fold; the Lag (h) before onset of Aβ fibrillation (no addition: 4.0 ± 0.3) came out at 2.5 h; the Rate (FU/h) of Aβ fibrillation, ThT fluorescence, 33 µM Aβ, AChE-S at 25.8 mg/L (no addition: 3.4 ± 0.4) turned out to be 7 FU/h; the Rate (fold change) of Aβ fibrillation against no addition is 2.1 fold.
